Experimental data taken from paper PMC4942255, “MutSα maintains the mismatch repair capability by inhibiting PCNA unloading”.

What was measured:
Assay in all cases: SPR; no nucleotide or Mg2+ listed in running buffer; n = 2; SPR (BIACORE 3000): 20 mM Hepes-NaOH pH 7.5, 100 mM NaCl, 1 mM DTT, 0.005% Tween-20; 20 μl/min, 3 min association and 3 min dissociation; temperature not stated
Conditions in all cases: protein: recombinant; tags: C-terminal FLAG on xMsh6; copies: 1;1; label: 3' biotin on strand 1; blunt, A:C mismatch (A at strand 1 position 22, C in strand 2)
[1] = molecular target: xMutSα ΔN (xMsh2-xMsh6ΔN-FLAG) (Xenopus laevis, UniProt A0A1B4WRB1;A0A1B4WRB2 1-932;=M+324-1340, internal_change)
[2] = molecular target: xMutSα PIP (xMsh2-xMsh6PIP-FLAG) (Xenopus laevis, UniProt A0A1B4WRB1;A0A1B4WRB2 1-932;1-1340, Q4A;F10A;F11A)
[3] = molecular target: xMutSα WT (xMsh2-xMsh6-FLAG) (Xenopus laevis, UniProt A0A1B4WRB1;A0A1B4WRB2 1-932;1-1340)
Chain of xMutSα WT (xMsh2-xMsh6-FLAG) (chain, as listed by the source, chain 1 of 2): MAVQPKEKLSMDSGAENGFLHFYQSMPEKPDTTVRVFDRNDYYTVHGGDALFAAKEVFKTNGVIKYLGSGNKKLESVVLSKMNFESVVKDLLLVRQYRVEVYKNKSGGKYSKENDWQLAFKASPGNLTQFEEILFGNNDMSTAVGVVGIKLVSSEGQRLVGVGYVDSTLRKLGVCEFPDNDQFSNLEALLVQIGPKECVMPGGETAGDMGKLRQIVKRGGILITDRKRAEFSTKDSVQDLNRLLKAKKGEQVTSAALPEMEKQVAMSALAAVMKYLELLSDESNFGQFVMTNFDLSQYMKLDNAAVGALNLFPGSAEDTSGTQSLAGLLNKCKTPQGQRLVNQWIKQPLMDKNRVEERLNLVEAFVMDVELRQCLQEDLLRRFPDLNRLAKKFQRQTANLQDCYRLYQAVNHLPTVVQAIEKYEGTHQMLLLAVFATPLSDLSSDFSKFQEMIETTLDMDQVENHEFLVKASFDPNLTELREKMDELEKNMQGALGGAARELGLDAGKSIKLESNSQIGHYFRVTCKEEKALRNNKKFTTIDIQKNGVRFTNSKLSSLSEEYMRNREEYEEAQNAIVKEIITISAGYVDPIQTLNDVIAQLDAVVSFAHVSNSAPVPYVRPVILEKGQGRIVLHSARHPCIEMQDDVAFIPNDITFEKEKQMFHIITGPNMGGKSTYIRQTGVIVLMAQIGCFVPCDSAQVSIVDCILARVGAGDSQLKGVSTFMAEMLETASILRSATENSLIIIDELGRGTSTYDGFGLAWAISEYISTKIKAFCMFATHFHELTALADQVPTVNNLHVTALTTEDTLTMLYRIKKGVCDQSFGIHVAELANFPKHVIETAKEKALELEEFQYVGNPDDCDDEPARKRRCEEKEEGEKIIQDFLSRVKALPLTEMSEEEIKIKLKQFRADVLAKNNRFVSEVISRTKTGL
Chain of xMutSα WT (xMsh2-xMsh6-FLAG) (chain, as listed by the source, chain 2 of 2): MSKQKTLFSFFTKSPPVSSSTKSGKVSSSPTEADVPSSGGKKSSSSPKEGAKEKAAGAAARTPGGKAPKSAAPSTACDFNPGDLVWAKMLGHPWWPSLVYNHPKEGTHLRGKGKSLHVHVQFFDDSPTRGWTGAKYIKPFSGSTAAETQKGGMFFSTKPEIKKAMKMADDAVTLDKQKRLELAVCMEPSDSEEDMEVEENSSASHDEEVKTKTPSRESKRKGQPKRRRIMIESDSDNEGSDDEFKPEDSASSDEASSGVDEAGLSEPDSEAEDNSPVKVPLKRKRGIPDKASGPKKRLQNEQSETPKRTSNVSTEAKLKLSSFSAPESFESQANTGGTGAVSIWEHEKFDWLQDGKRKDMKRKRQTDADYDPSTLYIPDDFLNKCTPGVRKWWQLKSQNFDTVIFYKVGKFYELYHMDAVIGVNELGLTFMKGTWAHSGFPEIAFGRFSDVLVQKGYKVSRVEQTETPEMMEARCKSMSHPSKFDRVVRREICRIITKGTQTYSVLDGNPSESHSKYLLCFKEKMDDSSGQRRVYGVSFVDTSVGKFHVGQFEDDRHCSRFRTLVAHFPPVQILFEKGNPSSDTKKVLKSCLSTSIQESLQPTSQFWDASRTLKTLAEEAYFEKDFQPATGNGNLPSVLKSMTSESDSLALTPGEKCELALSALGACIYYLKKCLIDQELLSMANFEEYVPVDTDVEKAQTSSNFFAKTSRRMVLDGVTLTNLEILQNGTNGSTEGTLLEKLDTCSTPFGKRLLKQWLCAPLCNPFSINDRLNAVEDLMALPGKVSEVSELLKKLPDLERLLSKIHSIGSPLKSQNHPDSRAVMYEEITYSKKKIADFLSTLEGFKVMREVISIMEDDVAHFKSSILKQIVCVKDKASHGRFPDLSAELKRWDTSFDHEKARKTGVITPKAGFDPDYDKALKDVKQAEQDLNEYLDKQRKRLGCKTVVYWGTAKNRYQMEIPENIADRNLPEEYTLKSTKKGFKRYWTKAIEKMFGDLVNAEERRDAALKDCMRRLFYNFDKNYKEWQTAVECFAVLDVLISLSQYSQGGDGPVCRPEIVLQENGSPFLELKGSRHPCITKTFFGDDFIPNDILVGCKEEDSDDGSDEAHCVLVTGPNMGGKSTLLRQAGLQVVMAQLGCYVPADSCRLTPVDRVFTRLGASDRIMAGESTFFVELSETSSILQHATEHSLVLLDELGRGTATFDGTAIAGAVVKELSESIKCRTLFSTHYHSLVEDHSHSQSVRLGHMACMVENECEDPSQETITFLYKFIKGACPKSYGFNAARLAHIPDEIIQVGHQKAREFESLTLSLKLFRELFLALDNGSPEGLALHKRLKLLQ

Chain of xMutSα PIP (xMsh2-xMsh6PIP-FLAG) (chain, as listed by the source Q4A;F10A;F11A, chain 1 of 2): as the sequence (chain, as listed by the source, chain 1 of 2) above
Chain of xMutSα PIP (xMsh2-xMsh6PIP-FLAG) (chain, as listed by the source Q4A;F10A;F11A, chain 2 of 2): as the sequence (chain, as listed by the source, chain 2 of 2) above, with Q4A, F10A, F11A counted along it

B1: 42 bp A:C mismatch oligo DNA (dsDNA)
DNA 1: GGGTGACCGTACTGCATCTCGAGATCCATGTTACTGCGTCAG
DNA 2: CTGACGCAGTAACATGGATCCCGAGATGCAGTACGGTCACCC
Kd [1]: 3.6 nM
Kd [2]: 4.4 nM
Kd [3]: 2.2 nM
